Experimental data from patent US20130316958A1 (University of Southern California, priority 2010, published 2013).
Non-standard residues stand in square brackets, D forms with d. No end group written: not given here.

What was measured:
Atg3 [1] = molecular target: T1, Atg3 (Homo sapiens, UniProt Q9NT62); test: GST pulldown of KSHV vFLIP α-helix fragments and deletion mutants; assay type: binding; settings: GST fusions or deletion mutants in HEK293T
T1 construct: GFP (alternative construct GFP-Atg3, not on the same molecule as GST); expressed in transfected cells; host or cells: HEK293T
T1 sequence (Q9NT62 whole entry, the tested form may be a part): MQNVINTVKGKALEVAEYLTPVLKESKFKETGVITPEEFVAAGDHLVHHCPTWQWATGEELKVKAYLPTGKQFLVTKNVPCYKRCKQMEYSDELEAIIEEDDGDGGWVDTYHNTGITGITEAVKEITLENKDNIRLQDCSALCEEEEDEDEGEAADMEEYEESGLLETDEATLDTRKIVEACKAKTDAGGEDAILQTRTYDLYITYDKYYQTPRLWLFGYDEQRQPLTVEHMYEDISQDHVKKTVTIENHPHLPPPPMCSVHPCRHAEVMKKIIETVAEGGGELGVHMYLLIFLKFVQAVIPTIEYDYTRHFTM
From the text: Due to the substantial similarities between DEDI and DED2, Atg3 bound each DED of KSHV vFLIP with a similar affinity. Structural analyses have shown that the DED1 and DED2 of KSHV vFLIP and MCV 159L contain six and five α-helixes, respectively. (Yang et al. (2005) Mol. Cell. 20:939-949); Bagneris et al. (2008) Mol. Cell. 30:620-631). To further define the Atg3 binding sequences, each DED of KSHV vFLIP was divided into small α-helix fragments based on the previous structural analysis and expressed as mammalian GST fusions. Truncated mutant constructs of KSHV-vFLIP and hATG3 were created by subcloning the PCR products of cDNA fragments containing each domain of the associated genes into pcDNA5/FRT/TO. HEK293T cells were transfected with mutant constructs for GST pulldown as described above, followed by immunoblotting with αV5. […] In contrast, vFLIP mutants carrying a loss of 14-3-3σ, IKKαβγ complex, or FADD interaction bound Atg3 and blocked rapamycin-induced autophagy as efficiently as wild-type vFLIP.

[2] = system: KSHV-infected TREX-BCBL-Vector cells; test: GFP-LC3 puncta autophagy assessment after peptide treatment; assay type: cell-based; settings: 30 or 50 μM peptide, 12 hr
From the text: (§1) The vFLIP α2 (10 aa) and α4 (12 aa) peptides that independently bound Atg3 at high efficiency were fused with the HIV-1 TAT protein transduction domain for intracellular delivery (Gump and Dowdy (2007) Trends Mol. Med. 13:443-448) and tested for their potential effects on autophagy induction. The K-α2 and K-α4 peptides contained KSHV vFLIP aa20-29 and aa128-139 regions, respectively, as retro-inverso versions to circumvent the proteolytic degradation. Mutant peptides K-α2m and K-α4m were also included, which replaced the hydrophobic core residues of the K-α2 (L21F22L23) and K-α4 (F130L-WVY139) peptides with alanines, as well as the C-α2 and C-α4 peptides containing the cFLIPs regions aa19-28 and aa128-139, respectively. At 12 hr post-transfection with GFP-LC3, KSHV-infected TREX-BCBL-Vector and TREX-BCBL-vFLIP cells were incubated with various concentrations of the peptides or rapamycin for an additional 12 hr, followed by an assessment of the GFP-LC3 puncta and cell death. […] Peptide-treated TREX-BCBL-Vector and TREX-BCBL-vFLIP cells were subjected to immunoblotting with αLC3 and aactin.

TREX-BCBL-Vector cells = test: Cell death after overnight peptide incubation; assay type: cell-based; settings: identical conditions, 30 or 50 μM
From the text: as §1

ALL cells = test: Tumor cell viability by trypan blue exclusion, ALL cells; assay type: cell-based; settings: BV-173 and SUP-B15, FIG. 5
Method: Tumor cells were treated with peptides at various concentrations for 12 hours and their viability measured by trypan blue exclusion, followed by analyses using the Beckman Coulter Z2 Particle Count and Size Analyzer (BC Z2 CS Analyzer). A minimum of 100 cells per sample using triplicate samples was counted per condition per experiment.

[3] = molecular target: T2, Atg3 (human Atg3, E2-like enzyme of the LC3 conjugation system) (human, UniProt Q9NT62 1-314); test: binding of Atg3 to the separate DEDs of vFLIP; method not detailed
T2 construct: also called hATG3; GFP-Atg3
T2 sequence (Q9NT62 whole entry): as the sequence (Q9NT62 whole entry, the tested form may be a part) above

[4] = molecular target: T2, Atg3 (human Atg3, E2-like enzyme of the …); test: co-immunoprecipitation from HEK293T cells
NF-κB = NF-κB luciferase reporter assay; assay type: cell-based; settings: NIH3T3 cells, 48 hr post-transfection
From the text: To determine the effects of the interactions of vFLIP with FADD, IKKαβγ, and 14-3-3σ on anti-autophagy activity, NIH3T3 cells stably expressing various vFLIP mutants were constructed: m14-3-3σ, which lacks 14-3-3σ-binding; mTRAF2, which lacks TRAF2-binding (Guasparri et al. (2006) EMBO Rep. 7:114-119); 67AAA and 58AAA, which have reduced NF-κB activation (Matta and Chaudhary (2004) Proc. Natl. Acad. Sci. USA 101:9399-9404); and mFADD, which lacks FADD-binding (Yang et al. (2005) Mol. Cell. 20:939-949). These cells were treated with either cyclohexamide (CHX) alone or CHX and TNF-α for 12 hr or with 2 μM rapamycin for 3 hr. Propidium iodide (PI) staining and flow cytometry analysis were performed to determine apoptosis levels. Alternatively, NIH3T3 cells containing vector, KSHV vFLIP, or its mutants were transfected with an NF-κB-luciferase reporter construct and a control renilla luciferase plasmid, pRL-SV40 (Promega). At 48 hr post-transfection, luciferase activity was measured with a luminometer using a dual luciferase assay kit (Promega) and normalized with renilla luciferase activity to determine transfection efficiency. GFP-LC3 puncta were detected using an inverted fluorescence microscope and the autophagy levels quantified as means (±SD) of the results from three independent experiments.

[5] = system: human Atg3 deletion mutants; test: GST pulldown with Atg3 deletion mutants; assay type: binding; settings: GST-Atg3, N-terminal and C-terminal regions
From the text: The overall structure of yeast Atg3 has a unique hammer-like shape with the N-terminal and C-terminal regions discretely responsible for Atg7 and Atg8 (equivalent to mammalian LC3) binding, respectively. (Yamada et al. (2007) J. Biol. Chem. 282:8036-8043). Based on the structure of yeast Atg3, human Atg3 deletion mutants fused with a GST mammalian expression vector were constructed: GST-Atg31-93, GST-Atg3193-268, GST-Atg3268-315, and GST-Atg3193-315-GST-tagged hATG3 and hATG3 mutant genes were cloned into a pcDNA5/FRT/TO derivative encoding an N-terminal GST epitope tag between the BamHI and NotI sites. GST pulldown with Flag-KSHV vFLIP, Flag-cFLIPs, Flag-MCV 159L, or Flag-HVS vFLIP along with GST-Atg3, GST-Atg3 N-terminal region (Nt), or GST-Atg3 C-terminal region (Ct) was performed as described above and was followed by immunoblotting with aFlag or aGST.

NIH3T3 cells = test: GFP-LC3 autophagy with ectopic FLIP expression; assay type: cell-based; settings: Hank's solution 4 hr or 2 μM rapamycin 3 hr
Method: At 12-16 hours post-transfection with GFP-LC3, NIH3T3 cells containing vector or the FLIP gene were treated with Hank's solution for 4 hr or with 2 μM rapamycin for 3 hr. Subsequently, GFP-LC3 was detected using an inverted fluorescence microscope, autophagy was quantified as means (±SD) of the combined results from three independent experiments, and autophagosomes were visualized through scanning electron microscopy. NIH3T3-Vector, NIH3T3-KSHV-vFLIP, and NIH3T3-MCV-159L cells were treated with Hank's solution for 4 hr, followed by immunoblotting with anti-LC3 and anti-βTubulin. At 12-16 hr post-transfection with GFP-LC3, TREX-BCBL-Vector and TREX-BCBL-vFLIP cells were treated with doxycycline for 24 hr, followed by incubation with 2 μM rapamycin for an additional 12 hr. The detection of GFP-LC3 and autophagy levels was performed as described above, vFLIP expression was detected by IB with anti-Flag, and autophagosomes were visualized by scanning EM. TNF-induced apoptosis and NF-κB luciferase assay were performed as previously described (Matta and Chaudhary (2004) Proc. Natl. Acad. Sci. USA 101:9399-9404).
The anti-autophagic properties of vFLIP, as well as the related cFLIP, HSV, and MCV, were evaluated by ectopic expression of HVS, vFLIP, MCV 159L, and the short form of cFLIP (cFLIPs) in NIHI3T3 cells. DNA fragments corresponding to the coding sequences of the KSHV-vFLIP, human cFLIPs, MCV-MC159, and HVS-vFLIP genes were amplified via polymerase chain reaction and subcloned into pcDNA5/FRT/TO between the AflII and BamHI restriction sites or pEF-IRES-puro between the AflII and XbaI sites. Starvation studies were carried out by transfecting cells containing vector or the FLIP gene with GFP-LC3, then 12-16 h post-transfection, treating the cells with Hank's solution for 4 hr or with 2 μM rapamycin for 3 hr. Autophagy was assessed by GFP-LC3 redistribution using an inverted fluorescence microscope, quantifying autophagy as means (±SD) of the combined results from three independent experiments. Autophagosomes were visualized through scanning electron microscopy. […]

Atg3 [6] = molecular target: T1, Atg3; test: Co-immunoprecipitation of FLIP with Atg3 in HEK293T cells; assay type: binding; settings: endogenously and exogenously expressed Atg3
Method: The ability of FLIP to bind to Atg3 was evaluated by co-immunoprecipitation assay. HEK293T cells were transfected with Flag-vFLIP and/or GFP-Atg3 or Flag-vFLIP and/or GST-Atg3, and at 48 hr post-transfection, cells were harvested and lysed in an NP40 buffer supplemented with complete protease inhibitor cocktail (Roche). After pre-clearing with protein A/G agarose beads for 1 hr at 4° C., whole-cell lysates were used for immunoprecipitation with αFlag, αGFP, or GST. Generally, 1-4 μg of the antibody was added to 1 ml of the cell lysate and incubated at 4° C. for 8 to 12 hr. The immunoprecipitates were then washed extensively with a lysis buffer and eluted by boiling them with an SDS loading buffer for 5 min. Following immunoprecipitation, samples were treated to immunoblot using αAtg3 (1:500) (Novus).

EVVLFLLNVF (also: GST fusion) [DED1α2 helix, α2 region of KSHV vFLIP aa 20-29, tested as mammalian GST fusion]
Atg3 binding (GST pulldown) (Atg3 [1]): individually sufficient for Atg3 binding

QTFLHWVYCMEN [DED2 α4 helix]
Atg3 binding (GST pulldown) (Atg3 [1]): individually sufficient for Atg3 binding

RRRQRRKKRGY-G ([dR][dR][dR][dQ][dR][dR][dK][dK][dR]G[dY]G; not fully specified; printed as RRRQRRKKRGY-G) [HIV-1 TAT only, HIV-1 TAT protein transduction domain alone, reference compound]
autophagy induction (GFP-LC3 puncta) [2]: no increase in autophagy
cell death (in words) (TREX-BCBL-Vector cells): no increase in autophagy nor cell death

RRRQRRKKRGY-G-FVNLAAAVVE [K-α2m]
autophagy induction (GFP-LC3 puncta) [2]: no increase in autophagy
cell death (in words) (TREX-BCBL-Vector cells): no increase in autophagy nor cell death

RRRQRRKKRGY-G-NEMCAAAHAATQ [K-α4m]
anticancer activity in ALL cell lines (ALL cells): significant anticancer activities
autophagy induction (GFP-LC3 puncta) [2]: no increase in autophagy
cell death (in words) (TREX-BCBL-Vector cells): no increase in autophagy nor cell death

B1: KSHV vFLIP DED1 (other)
chain: MATYEVLCEVARKLGTDDREVVLFLLNVFIPQPTLAQLIGALRALKEEGRLTFPLLAECLFRAGRRDLLRDLLHLDPRFLERHLAGTMSY
notes: also called DED1 of KSHV vFLIP
binding result [3]: binds

B2: KSHV vFLIP DED2 (other)
chain: FSPYQLTVLHVDGELCARDIRSLIFLSKDTIGSRSTPQTFLHWVYCMENLDLLGPTDVDALMSMLRSLSRVDLQRQVQTLMGLHLSGPSHSQHYRHTP
notes: also called DED2 of KSHV vFLIP
binding result [3]: binds

B3: MCV 159L (MCV vFLIP) (other)
chain: MSDSKEVPSLPFLRHLLEELDSHEDSLLLFLCHDAAPGCTTVTQALCSLSQQRKLTLAALVEMLYVLQRMDLLKSRFGLSKEGAEQLLGTSFLTRYRKLMVCVGEELDSSELRALRLFACNLNPSLSTALSESSRFVELVLALENVGLVSPSSVSVLADMLRTLRRLDLCQQLVEYEQQEQARYRYCYAASPSLPVRTLRRGHGASEHEQLCMPVQESSDSPELLRTPVQESSSDSPEQTT
notes: also called MCV-MC159; MCV MC159
binding result [4]: binds
NF-κB activation (NF-κB): did not carry out NF-κB activation
Atg3 region bound (GST pulldown) [5]: Atg3 binding patterns similar to KSHV vFLIP
suppression of starvation- and rapamycin-induced autophagy (NIH3T3 cells): strongly suppressed starvation- and rapamycin-induced autophagy
interaction with Atg3 (co-immunoprecipitation) (Atg3 [6]): interacted with Atg3 as efficiently as KSHV-vFLIP

B4: HVS vFLIP (other)
chain: MDLKTTVLHITDSFTEEEMYCLLFLINGCIPRNCNAVKISDLIIETLSKSTQWDICLTQCLYVLRKIELLLNLFQVTKEDVKQSFFTQLQLETHVLTLVNVNNNLTAKDEKRLCFILDQFFPRNVVASSVILCVFSNMLCEMPVLECLCQLKKCLKQIGRSDLAKTV
notes: also called Flag-HVS vFLIP
binding result [4]: binds
Atg3 region bound (GST pulldown) [5]: Atg3 binding patterns similar to KSHV vFLIP
suppression of starvation- and rapamycin-induced autophagy (NIH3T3 cells): strongly suppressed starvation- and rapamycin-induced autophagy
interaction with Atg3 (co-immunoprecipitation) (Atg3 [6]): interacted with Atg3 as efficiently as KSHV-vFLIP
